Experimental data reported in the supplement of paper PMC10567573.

B1: MYL5 (parent)
chain: FQFASIDVAGNLDYKALSYVITHG
B2: TRIM9 (parent)
chain: CVQCKMPVCYQCLEEGKHSSHEVK

Variants of: B1
Assay: protein stability index of a GFP-peptide fusion (GPS, HEK-293T) (PSI 1-6); higher = more stable
Conditions: c terminus: a fixed tail appended
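Note: lentivirally expressed fusions sorted by FACS into six bins by GFP to DsRed ratio, PSI derived from sequencing read proportions per bin multiplied by bin number.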

Protein stability index of substitutions, site by site:
S5: C 1.36; I 4.16; W 2.62; A 3.09; N 3.74; V 2.69; Y 3.17; F 3.77; K 2.4; M 3.67; D 2.43
A4: D 1.9; N 2.56; P 2.19; H 4.96; V 1.99; T 2.81; E 2.51; F 2.42; L 4.51; Q 3.96; S 2.84
F3: S 1.93; Y 2.59; G 3; I 2.29; A 2.17; V 2.75; P 2.84; K 1.43; H 2.11; R 1.75; C 2.41; D 1.34; N 1.36; E 1.56; T 1.22; Q 2.32; M 2.36
V8: E 2.42; C 2.11; D 4.22
I6: Y 2.46; G 1.26; E 1.49; P 2.43; M 3.92; A 2.72; N 3.39; D 1.4; T 1.66; H 4; Q 2.92; S 1.18; F 4.13
Q2: E 4.45; M 2.75; L 2.78; A 1.56; G 3.54; V 3.19; F 2.36; N 3.37; K 2.89; T 2.75; C 3.59; P 3.25; R 4.64; D 4.24; H 2.06
F1: H 1.79; T 1.55; L 1.89; K 1.27; D 1.43; R 1.67; I 3.26; A 1.63; Y 2.68; P 2.79; C 3.5; W 3.55; E 1.23; N 1.61; Q 2.23; G 2.09; S 1.18; V 3.25
D7: N 2.8; A 2.72; C 3.48; G 2.38; I 3.19; K 2.52; R 1.11; Y 3.46; E 2.83; S 3.9

Variants of: B2
Assay: as above
Conditions: c terminus: a fixed tail appended

Protein stability index of substitutions, site by site:
E22: Q 2.73; Y 3.28; C 4.27; K 4.31; V 4.17; R 3.12; G 3.32; F 3.56; I 3.8; P 3.33; D 3.29; H 3.79; T 4; S 3.68; N 3.67; M 3.65; L 3.74; W 3.11; A 3.57
C12: N 3.67; T 3.42; M 3.7; Y 3.58; H 4.34; S 4.48; V 3.45; W 2.92; P 3; L 3.48; Q 4.03; I 2.28; K 4.8
V23: C 4.65; E 4.28; K 3.68; S 3.37; R 3.24; H 3.32; L 3.16; T 3.84; Q 3.85; D 4.44; F 3.65; M 4; Y 3.46; I 3.7; N 3.98; P 4.24; W 3.38; A 4.37; G 3.84
L13: P 4.47; C 4.88; Q 4.48; Y 3.48; H 4.55; K 4.53; F 3.86; W 4.7; I 4.08; T 3.08; S 4.7; N 3.46; G 4.81; D 4.04; V 4.45; A 4.22; M 4.21; E 4.16; R 4.13
S19: N 4.38; P 4.17; T 4.25; H 3.45; Y 3.1; F 3.37; D 3.8; R 3.73; G 3.67; M 3.72; E 4.62; Q 4.51; W 3.35; I 3.4; L 3.89; K 3.9; V 3.86; C 3.85; A 4.41
K24: P 3.62; V 3.8; Q 3.96; I 2.95; W 2.88; S 3.71; Y 3.41; D 4.73; F 2.85; A 4.28; H 3.92; R 3.46; G 3.19; M 3.68; E 4.59; C 4.97; L 3.8; N 3.89; T 3.7
E14: R 3.83; A 3.12; H 3.34; P 3.75; C 4.34; F 2.97; N 3.66; G 4.14; Q 4.17; V 3.34; K 3.99; D 2.99; I 3.55; Y 3.15; T 3.53; L 2.93; S 3.68; M 3.17
S20: R 4.38; C 4.32; Q 4.29; V 3.75; H 4.3; P 4.13; N 3.69; F 2.59; D 4.3; M 4; Y 3.24; E 3.98; K 4.26; T 4.07; L 4.43; I 2.9; A 3.68
G16: Q 2.64; M 3.71; D 4.58; L 3.49; E 3.94; I 3.25; F 3.73; K 3.57; P 3.9; V 3.62; A 4.02; R 3.27; W 2.8; S 3.7; N 4.09; C 4.33; H 3.36; Y 3.41; T 3.83
E15: M 3.75; S 3.81; C 4.14; G 4.15; P 3.88; T 3.69; Y 3.36; H 3.36; V 3.47; D 4.07; K 3.67; N 3.82; A 4.08; L 3.65; F 2.82; W 2.72; Q 3.76; R 3.47; I 3.82
H18: N 3.94; K 3.7; E 3.56; M 3.93; W 3.04; P 3.28; T 4.11; L 3.55; I 3.41; F 3.78; Y 3.55; V 3; D 4.46; R 3.82; A 4.04; G 3.63; Q 3.47; C 3.79; S 4.42
H21: A 3.15; S 3.54; M 3.7; G 4.16; F 2.88; T 4.47; N 3.75; I 3.66; W 2.96; Y 3.14; V 4.05; K 3.76; P 4.08; D 3.88; R 3.36; L 3.87; E 4.57; C 4.1; Q 4.16
K17: Q 4.5; Y 3.54; P 3.75; S 3.42; L 3.86; H 4.47; V 3.81; F 3.1; M 3.3; I 3.61; E 3.89; C 3.47; G 4.38; D 2.88; R 2.96; N 3.65; A 4.14
